In the supplement of paper PMC9732359:
± gives the uncertainty stated by the source.

Experiment: protein stability index of a GFP-peptide fusion (yeast GPS) (PSI 1-4); higher = more stable; sorted into four equal gates, so the index is relative within each strain
In short: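 Peptides tiling yeast proteins in 17-residue segments were fused downstream of GFP, with Cherry expressed from the same plasmid. As a pooled library in yeast, mid-log cultures grown in leucine-free medium were sorted into four equal gates by GFP/Cherry fluorescence ratio. Gate plasmids were PCR-amplified and Illumina-sequenced, and barcodes linked reads to strains. Each peptide received a protein stability index equal to the sum of each gate's read frequency times its gate number.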

Sequence	protein stability index (doa10∆)	protein stability index (pdr5∆)	protein stability index (san1∆)	protein stability index (ubr1∆)
SPLQSSKSKQSFTQGEL [YMR129W/POM152]	2.88 ± 0.055	2.8 ± 0.061	2.73 ± 0.055	2.95 ± 0.05
ANKLSKSHSTVSSSSRH [ISW2]	2.9 ± 0.066	2.63 ± 0.069	2.71 ± 0.056	2.93 ± 0.037
VAHITTKSPAYPMMHQV [RGR1]	1.79 ± 0.046	1.91 ± 0.054	1.85 ± 0.067	1.68 ± 0.068
TSSTPSPIKNGSCTRQL [YOR098C/NUP1]	3.26 ± 0.064	3.02 ± 0.045	2.68 ± 0.046	3.09 ± 0.049
TSINHKIYRVGKGDDEA [RPL3]	3.44 ± 0.071	3.61 ± 0.1	3.67 ± 0.044	3.28 ± 0.11
SGGLFGNQQQQLQQQPQ [YGL172W/NUP49]	2.88 ± 0.13	2.61 ± 0.15	2.89 ± 0.093	3 ± 0.12
CYQFAEYLFKPQLISDK [ARP7]	2.38 ± 0.06	2.14 ± 0.049	2.2 ± 0.064	2.11 ± 0.04
REHERVILKQILQILDQ [SWP82]	2.83 ± 0.077	2.86 ± 0.066	2.84 ± 0.063	2.8 ± 0.046
GPDTKGQLEDFDSELIH [SMC3]	3.1 ± 0.21	3.52 ± 0.18		3.62 ± 0.22
GTGNNSAVKRLLHVAVS [RPN2]	2.19 ± 0.24	2.51 ± 0.25		1.58 ± 0.15
NVEKYPTFVEFILIPLY [SNU114]	2.33 ± 0.052	2.46 ± 0.054	2.04 ± 0.069	2.65 ± 0.053
LILILVISFGQPKLNPM [SWI1]	1.68 ± 0.054	1.61 ± 0.042	1.78 ± 0.092	2.09 ± 0.04
WAVISAFFREKGLVSQQ [RPB2]	3.38 ± 0.14	3.46 ± 0.1	3.29 ± 0.078	3.14 ± 0.078
FKDETISKKIIGMSLLM [SIR3]	3.04 ± 0.062	2.07 ± 0.06	2.78 ± 0.068	3.51 ± 0.058
ENDVKPISIEAPQFYRY [SWI3]	2.55 ± 0.038	2.14 ± 0.039	2.2 ± 0.055	1.95 ± 0.035
TRASKVLEQLSGQTPVQ [RPL11A]		3.01 ± 0.12	2.84 ± 0.074	3.06 ± 0.077
ELIIDKVTCSSNSSSSP [MED1]	2.72 ± 0.058	2.75 ± 0.065	2.79 ± 0.054	2.72 ± 0.048
RCLVAVIQQDKYQKALH [SRP72]	2.46 ± 0.2	2.23 ± 0.07	1.85 ± 0.1	2.09 ± 0.13
VDKSRKVAHTSYKRIYG [PRE8]	3.31 ± 0.11	3.13 ± 0.13	3.28 ± 0.17	3.13 ± 0.093
DSLIFKDSSLNYSSESY [YJL039C/NUP192]	3.43 ± 0.089	3.25 ± 0.1	2.71 ± 0.21	3.17 ± 0.14
DNNNTTNNDSNNKNNSI [MED2]	2.83 ± 0.049	2.86 ± 0.045	2.96 ± 0.038	2.45 ± 0.034
LTKAAIVQIDATPFRQW [RPS8A]	2.132 ± 0.016	2.453 ± 0.017	2.347 ± 0.021	2.362 ± 0.014
DEIATIQSKRLRNKIAG [RPS17A]	3.15 ± 0.11	3.13 ± 0.099	3.33 ± 0.066	3.48 ± 0.14
VFIRHRTPHEIQEANSV [RIP1]		2.24 ± 0.28		1.69 ± 0.17
DMNSNLQVLKRERDGIK [SMC1]	3.01 ± 0.093	2.92 ± 0.065	3.03 ± 0.047	2.78 ± 0.078
SKKRFAAIWTLCKTKMV [RPO21]	1.75 ± 0.048	1.53 ± 0.049	1.24 ± 0.099	1.57 ± 0.032
